Results published in PMC12412624, “Engineered Cas12j‐8 is a Versatile Platform for Multiplexed Genome Modulation in Mammalian Cells”.
Numbering of substitutions follows the chain as printed.

Legend:
[1] = test system: T1, dCas12j-8 D403R D403R;D369A;E567A;D658A (bacteriophage (metagenome)); settings: HEK293T cells; panel 1c (compare within a panel only); scale: mean GFP / mean GFP of wild type, printed, no background subtraction
T1 sequence: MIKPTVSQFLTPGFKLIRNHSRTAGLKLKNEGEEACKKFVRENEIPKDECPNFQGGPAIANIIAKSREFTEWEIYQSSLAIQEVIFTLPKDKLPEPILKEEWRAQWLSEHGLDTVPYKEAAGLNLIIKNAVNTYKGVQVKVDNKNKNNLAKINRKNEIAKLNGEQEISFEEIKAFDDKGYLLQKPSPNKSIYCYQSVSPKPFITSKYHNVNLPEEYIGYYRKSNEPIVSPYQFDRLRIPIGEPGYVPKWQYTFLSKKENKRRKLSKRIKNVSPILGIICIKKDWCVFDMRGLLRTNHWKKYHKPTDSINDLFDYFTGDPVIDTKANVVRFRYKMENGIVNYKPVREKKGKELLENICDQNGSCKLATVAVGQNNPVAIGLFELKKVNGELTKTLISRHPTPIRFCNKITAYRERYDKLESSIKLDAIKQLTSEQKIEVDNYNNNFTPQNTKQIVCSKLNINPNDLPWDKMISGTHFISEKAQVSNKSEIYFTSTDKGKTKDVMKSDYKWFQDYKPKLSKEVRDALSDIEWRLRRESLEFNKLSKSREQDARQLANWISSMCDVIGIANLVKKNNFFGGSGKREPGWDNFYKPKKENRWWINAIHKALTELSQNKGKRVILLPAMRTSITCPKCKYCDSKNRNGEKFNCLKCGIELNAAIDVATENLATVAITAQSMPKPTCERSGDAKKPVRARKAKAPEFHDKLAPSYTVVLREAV

[2] = test system: T2, dCas12j-8 E258R+E547R E258R;E547R;D369A;E567A;D658A (bacteriophage (metagenome)); settings: HEK293T cells; panel 1d (compare within a panel only); scale: mean GFP / mean GFP of wild type, printed, no background subtraction
T2 sequence: T1 sequence with E258R, R403D, E547R

[3] = test system: T3, dCas12j-8 E258R+D313R+D495R+E547R E258R;D313R;D495R;E547R;D369A;E567A;D658A (bacteriophage (metagenome)); settings: HEK293T cells; panel 1e (compare within a panel only); scale: mean GFP / mean GFP of wild type, printed, no background subtraction
T3 sequence: T1 sequence with E258R, D313R, R403D, D495R, E547R

With “CUUUCAAGACUAAUAGAUUGCUCCUUACGAGGAGACACUCCCUAUCAGUGAUAGAG / TTNACTCCCTATCAGTGATAGAG / CTCTATCACTGATAGGGAGTNAA [TetO]” the binding signal [1] was 0.365, the binding signal [2] was 3.03 and the binding signal [3] was 4.81.
